Results on six molecules are retold here after patent US20260151496A1 (FUDAN UNIVERSITY, published 2026).

In assay [1] the target is T1, human HER2 His6 protein, extracellular domain (NCBI NP_004439.2, Met 1-Thr 652), C-terminal polyhistidine tag (human, UniProt P04626 23-652).
T1 construct: range 1-652; The stated range includes Met 1; also called HER2-ECD; human HER2-ECD
Description: called SPR, run on ForteBio OCTET R2; antibody captured on Protein A sensor, HER2 protein at 500-31.3 nM as analyte, 25 °C. On the procedure:
(§1) […] detection was performed and Protein A sensor was used to solidify the antibody at a curing height of approximately […]. […] Affinity detection: equilibrium for 60 seconds, binding for 180 seconds, dissociation for 180 seconds, detection at 25° C., and kinetic characterization analysis was performed using the ForteBio OCTET R2 system.
For orientation: In BLI a coated tip is dipped into the sample, and binding shifts an interference pattern.

Assay [2] concerns the target T2, HER2 receptor on the surface of NCI-N87 cells (human, UniProt P04626 23-1255).
T2 construct: whole, on cells; also called HER2 on tumor cell surface
Description: flow cytometry on NCI-N87 cells, PE-labelled secondary antibody. The procedure: (§2) HER2 overexpressing gastric cancer cell line NCI-N87 was used as the target cell. 100 μL of the test antibody diluted in a 10 folds gradient was used as the primary antibody. It was mixed with 1×10⁵ tumor cells suspended in 100 μL RPMI-1640 serum-free medium at final concentrations of 10 μg/mL, 1 μg/mL, and 0.1 μg/mL. The cells were then incubated at 4° C. for 1 hour, washed twice with PBS to remove unbound primary antibodies, and incubated with 200 μL, 2 μg/mL, PE labeled secondary antibodies at 4° C. for 30 minutes. The cells were washed twice with PBS to remove unbound secondary antibodies. Finally, the cells were resuspended in 200 μL PBS and analyzed by flow cytometry to determine the binding affinity of the test antibody to HER2 on the corresponding cell surface.
In general terms: A flow cytometer gives signals particle by particle.

Assay [3] concerns the target T1, human HER2 His6 protein, extracellular …. Description: ForteBio OCTET R2, antibody captured on Protein A sensor, HER2 protein in solution, 25 °C. On the procedure: as §1
Assay [4] has as its target T2, HER2 receptor on the surface of NCI-N87 …. Description: flow cytometry on NCI-N87 cells, PE-labelled secondary antibody. On the procedure:
as §2
This is another data set of the same source.

In assay [5] the target is T1, human HER2 His6 protein, extracellular …. The assay can be described thus: ELISA, HER2 protein coated at 1 µg/mL, detection with HRP-labelled protein A, OD 450 nm. The procedure: (§3) HER2 protein was diluted to 1 μg/mL with coating solution, coated onto ELISA plate, 100 μL/well, 4° C., overnight. The excess antigens were washed off. The plate was blocked with 1% BSA at room temperature for 2 hours, then 5-fold gradient diluted monoclonal antibodies were added at 100 μL/well, and the plate was incubated at room temperature for 1 hour; the unbound antibodies were washed off, and suitable concentration of horseradish peroxidase labeled Staphylococcus protein A was added at 100 μL/well, and the plate was incubated at room temperature for 0.5 hours. The unbound secondary antibody was washed off. TMB colorimetric solution was added and reacted for about 15 minutes. 1M HCl at 50 μL/well was added to terminate the colorimetric reaction, then the absorbance was measured at 450 nm and the data was analyzed.
(In general: ELISA stands for enzyme-linked immunosorbent assay.)

Assay [6] has the same target. Description: ELISA, HER2 protein coated at 1 µg/mL, detection with HRP-labelled protein A. The procedure:
as §3

Where two headings read alike, the source gives them in different places.

B1: HER2 VHH-FC1 fusion protein 2-F03 (Fc fusion)
chain: EVQLVESGGGLVQPGGSLRLSCAASGLTFRRYHMSWYRQAPGKERELVAVISDTGTTNYAESVKGRFTISRDNSRSTVFLQLNSLKPDDTAVYYCNGRWPAVAADWWGQGTQVTVSSEPKSSDKTHTCPPCPAPEFEGGPSVFLFPPKPKDTLMISRTPEVTCVVVDVSHEDPEVKFNWYVDGVEVHNAKTKPREEQYNSTYRVVSVLTVLHQDWLNGKEYKCKVSNKALPASIEKTISKAKGQPREPQVYTLPPSRDELTKNQVSLTCLVKGFYPSDIAVEWESNGQPENNYKTTPPVLDSDGSFFLYSKLTVDKSRWQQGNVFSCSVMHEALHNHYTQKSLSLSPGK
notes: 25; also called 2-F03-FC1; chimeric nanobody 2-F03
For the molecule B1, in assay [1], binding was characterised by a dissociation constant (Kd) of 23.2 nM. Also, the EC50 in assay [2] came out at 1.67 nM; in assay [4], 0.13 µg/mL; in assay [5], 0.05 nM; in assay [6] it was 0.004 µg/mL. Also, the “Max MFI” value in assay [2] was found to be 234000. In assay [3], the koff was 0.0108 s⁻¹. Also, the kon in assay [3] worked out at 466000 M⁻¹ s⁻¹.

B2: HER2 VHH-FC1 fusion protein 1-G07 (Fc fusion)
chain: QVQLVESGGGKAQPGGSLRLSCVASRITFRHYDLSWYRQAPGQERELVATVTNGGVITYADSVKGRFTISRDNAKNTVQLQMNNLKPEDTAVYYCNAVWVYLQRLTQNKKENDYWGPGTQVTVSSEPKSSDKTHTCPPCPAPEFEGGPSVFLFPPKPKDTLMISRTPEVTCVVVDVSHEDPEVKFNWYVDGVEVHNAKTKPREEQYNSTYRVVSVLTVLHQDWLNGKEYKCKVSNKALPASIEKTISKAKGQPREPQVYTLPPSRDELTKNQVSLTCLVKGFYPSDIAVEWESNGQPENNYKTTPPVLDSDGSFFLYSKLTVDKSRWQQGNVFSCSVMHEALHNHYTQKSLSLSPGK
notes: 25; also called 1-G07-FC1; chimeric nanobody 1-G07
Take B2: the EC50 in assay [2] is 2.48 nM; in assay [4], 0.199 µg/mL; in assay [5], 0.128 nM; in assay [6], 0.01 µg/mL. Further, the “Max MFI” value in assay [2] came to 250000.

B3: HER2 VHH-FC1 fusion protein 1-B05 (Fc fusion)
chain: AVQLVESGGGPGGSLRLSCAASGITFFRHTLGWYRQAPGKQRELVASITGGESTNYADSVKSRFTISRDNAKNMVFLQMNSLKPEDTALYYCNSKWDAAGVEFWGKGTLVTVSSEPKSSDKTHTCPPCPAPEFEGGPSVFLFPPKPKDTLMISRTPEVTCVVVDVSHEDPEVKFNWYVDGVEVHNAKTKPREEQYNSTYRVVSVLTVLHQDWLNGKEYKCKVSNKALPASIEKTISKAKGQPREPQVYTLPPSRDELTKNQVSLTCLVKGFYPSDIAVEWESNGQPENNYKTTPPVLDSDGSFFLYSKLTVDKSRWQQGNVFSCSVMHEALHNHYTQKSLSLSPGK
notes: 25; also called 1-B05-FC1; chimeric nanobody 1-B05
B3 had a Kd in assay [1] of 8.9 nM. Also, the EC50 in assay [2] amounted to 1.86 nM; in assay [4], 0.144 µg/mL; in assay [5], 0.069 nM; in assay [6] it was 0.005 µg/mL. The “Max MFI” value in assay [2] turned out to be 245000. In assay [3], this molecule yielded a koff of 0.0108 s⁻¹. The kon in assay [3] stood at 1.22e+06 M⁻¹ s⁻¹.

B4: HER2 VHH-FC1 fusion protein 2-C07 (Fc fusion)
chain: AVQLVESGGGLVQPGGSLRLSCAASGLTFMRYDINWYRQAPGKERELVAALDSSSGRTNYADFTEGRFTISRNNAKNSAYLQMNNLKPEDTASYYCNAQWKRIGADYWGQGTQVTVFSEPKSSDKTHTCPPCPAPEFEGGPSVFLFPPKPKDTLMISRTPEVTCVVVDVSHEDPEVKFNWYVDGVEVHNAKTKPREEQYNSTYRVVSVLTVLHQDWLNGKEYKCKVSNKALPASIEKTISKAKGQPREPQVYTLPPSRDELTKNQVSLTCLVKGFYPSDIAVEWESNGQPENNYKTTPPVLDSDGSFFLYSKLTVDKSRWQQGNVFSCSVMHEALHNHYTQKSLSLSPGK
notes: 25; also called 2-C07-FC1; chimeric nanobody 2-C07
Take B4: the Kd in assay [1] turned out to be 7.42 nM. Also, the EC50 stood at 1.68 nM in assay [2], 0.131 µg/mL in assay [4], 0.07 nM in assay [5] and 0.005 µg/mL in assay [6]. The “Max MFI” value in assay [2] stood at 241000. The molecule also had a koff in assay [3] of 0.00251 s⁻¹. This molecule gave a kon in assay [3] of 338000 M⁻¹ s⁻¹.

B5: HER2 VHH-FC1 fusion protein 1-C10 (Fc fusion)
chain: QVQLVESGGDLVQPGGSLRLSCATSGLTFRRYELKWYRQAPGKERELVAGITPASGSRNYADSVKGRFTISRDDAKMTVYLQMNSLEPEDTAVYYCNAYWMIPQHIENNYWGKGTLVTVSSEPKSSDKTHTCPPCPAPEFEGGPSVFLFPPKPKDTLMISRTPEVTCVVVDVSHEDPEVKFNWYVDGVEVHNAKTKPREEQYNSTYRVVSVLTVLHQDWLNGKEYKCKVSNKALPASIEKTISKAKGQPREPQVYTLPPSRDELTKNQVSLTCLVKGFYPSDIAVEWESNGQPENNYKTTPPVLDSDGSFFLYSKLTVDKSRWQQGNVFSCSVMHEALHNHYTQKSLSLSPGK
notes: 25; also called 1-C10-FC1; chimeric nanobody 1-C10
B5 gave a Kd in assay [1] of 4.61 nM. In addition, the EC50 in assay [2] is 2.64 nM; in assay [4] it was 0.209 µg/mL; in assay [5], 0.22 nM; in assay [6], 0.017 µg/mL. The “Max MFI” value in assay [2] is 240000. This molecule gave a koff in assay [3] of 0.001 s⁻¹. Moreover, the kon in assay [3] turned out to be 217000 M⁻¹ s⁻¹.

B6: HER2 VHH-FC1 fusion protein 1-C09 (Fc fusion)
chain: DVQLVESGGGLVQPGGSLRLSCEASGLTFRRYHFSWYRQPPGKERELVAVISDTGSTTNYTDSVKGRFTISRDLARNTVFLQLNSLKPDDTAVYYCNAKWPIIAADWWGQGTQVTVSSEPKSSDKTHTCPPCPAPEFEGGPSVFLFPPKPKDTLMISRTPEVTCVVVDVSHEDPEVKFNWYVDGVEVHNAKTKPREEQYNSTYRVVSVLTVLHQDWLNGKEYKCKVSNKALPASIEKTISKAKGQPREPQVYTLPPSRDELTKNQVSLTCLVKGFYPSDIAVEWESNGQPENNYKTTPPVLDSDGSFFLYSKLTVDKSRWQQGNVFSCSVMHEALHNHYTQKSLSLSPGK
notes: 25; also called 1-C09-FC1; 1-C9-FC1
With B6, the Kd in assay [1] stood at 12.1 nM. Moreover, the EC50 was 1.39 nM in assay [2], 0.109 µg/mL in assay [4], 0.125 nM in assay [5] and 0.01 µg/mL in assay [6]. The “Max MFI” value in assay [2] turned out to be 269000. In addition, the koff in assay [3] worked out at 0.0118 s⁻¹. This molecule displayed a kon in assay [3] of 974000 M⁻¹ s⁻¹.

The Kd is the constant that tells how readily two partners part at equilibrium. Read a low Kd as higher affinity. The EC50 is the midpoint of the concentration-response curve. A low value points to higher potency in that assay. Usually koff stands for a measure of how fast the partners let go of each other. A low value points to slow dissociation. For orientation: kon means a measure of how fast the partners come together.
